Measurements published in the supplement of paper PMC9233669.
Fewer inactive variants are shown than the library holds.

How the values were obtained:
biotinyl-Leu-oxazolone = assay: self-aminoacylation, catalytic enhancement (BLO) (fold over background); higher = more active; k-Seq, kA / k0A0; sequences stand for … in GGGAAUGGAUCCACAUCUACGAAUUC…UUCACUGCAGACUUGACGAAGCUG
Outline: (§1)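 Each biotinyl-aminoacyl-oxazolone, at 2–1250 μM, was incubated with mutagenized RNA pools (0.43 μM) carrying a 21-nt variable region. The 50 μL reactions contained HEPES/NaCl/KCl/MgCl2/CaCl2 buffer with 5% acetonitrile at pH 6.9–7.0 and ran for 90 minutes at room temperature. After streptavidin capture, RNA was measured by qPCR in triplicate and by Illumina sequencing, and catalytic enhancement was calculated as median kA over the uncatalyzed rate from a pseudo-first-order fit of per-sequence fraction reacted.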

biotinyl-Met-oxazolone = assay: self-aminoacylation, catalytic enhancement (BMO) (fold over background); higher = more active; k-Seq, kA / k0A0; sequences stand for … in GGGAAUGGAUCCACAUCUACGAAUUC…UUCACUGCAGACUUGACGAAGCUG
Outline: as §1

biotinyl-Trp-oxazolone = assay: self-aminoacylation, catalytic enhancement (BWO) (fold over background); higher = more active; k-Seq, kA / k0A0; sequences stand for … in GGGAAUGGAUCCACAUCUACGAAUUC…UUCACUGCAGACUUGACGAAGCUG
Outline: as §1

biotinyl-Phe-oxazolone = assay: self-aminoacylation, catalytic enhancement (BFO) (fold over background); higher = more active; k-Seq, kA / k0A0; sequences stand for … in GGGAAUGGAUCCACAUCUACGAAUUC…UUCACUGCAGACUUGACGAAGCUG
Outline: as §1

biotinyl-Val-oxazolone = assay: self-aminoacylation, catalytic enhancement (BVO) (fold over background); higher = more active; k-Seq, kA / k0A0; sequences stand for … in GGGAAUGGAUCCACAUCUACGAAUUC…UUCACUGCAGACUUGACGAAGCUG
Outline: as §1

biotinyl-Ile-oxazolone = assay: self-aminoacylation, catalytic enhancement (BIO) (fold over background); higher = more active; k-Seq, kA / k0A0; sequences stand for … in GGGAAUGGAUCCACAUCUACGAAUUC…UUCACUGCAGACUUGACGAAGCUG
Outline: as §1

| Sequence | self-aminoacylation (biotinyl-Leu-oxazolone) | self-aminoacylation (biotinyl-Met-oxazolone) | self-aminoacylation (biotinyl-Trp-oxazolone) | self-aminoacylation (biotinyl-Phe-oxazolone) | self-aminoacylation (biotinyl-Val-oxazolone) | self-aminoacylation (biotinyl-Ile-oxazolone) |
| --- | --- | --- | --- | --- | --- | --- |
| AACUGUGCUAAUAGUCGCAAG [Fam3.1 aminoacylation ribozyme variant] | 2.35 | 1.81 | 2.34 | 2.41 | 1.61 | 2.14 |
| ACUCACCUAGGUCAACGGGUG [Fam2.2 aminoacylation ribozyme variant] | 2.29 | 2.67 | 3.14 | 8.54 | 2.22 | 1.94 |
| AGUGCCCUGGUCAUCGAGUGA [Fam2.1 aminoacylation ribozyme variant] | 14.5 | 12.5 | 13.6 | 67.6 | 5.79 | 6.36 |
| AUUACCCUGGUCUUGGAGUGA [Fam2.1 aminoacylation ribozyme variant] | 3.23 | 2.24 | 4.3 | 5.63 | 1.98 | 2.27 |
| AUUACCCUGGUCAUCAAAUGA [Fam2.1 aminoacylation ribozyme variant] | 0.969 | 1.14 | 0.735 | 1.1 | 0.806 | 1.1 |
| ACACUCUUCAAGCAAUCGGUC [Fam1B.1 aminoacylation ribozyme variant] | 1.11 | 0.9 | 2.4 | 4.37 | 1.08 | 0.997 |
| CGAAACUUCAAGCAAUCGGUC [Fam1B.1 aminoacylation ribozyme variant] | 0.993 | 0.901 | 5.43 | 7.94 | 1.18 | 1.17 |
| CCACACCUCAAGCUAUCGGUC [Fam1B.1 aminoacylation ribozyme variant] | 1.18 | 1.21 | 0.809 | 1.1 | 1.27 | 1.37 |
| CUACUUCAACCAAUCGGUCUC [Fam1A.1 aminoacylation ribozyme variant] | 1.19 | 0.76 | 12.9 | 23.8 | 0.98 | 0.904 |
| CUACUGCAAAAAAUCGGUCUG [Fam1A.1 aminoacylation ribozyme variant] | 0.638 | 0.686 | 0.892 | 0.868 | 0.703 | 0.788 |
| CCACGCUUCAAGCACUCGGUC [Fam1B.1 aminoacylation ribozyme variant] | 0.819 | 0.938 | 0.81 | 0.769 | 1.29 | 0.855 |
| CUGCUUCAAACAUUCGGUCUG [Fam1A.1 aminoacylation ribozyme variant] | 1.25 | 1.12 | 0.813 | 1.11 | 1.62 | 1.29 |
| CUACUUCAAACAAUAGGUCUC [Fam1A.1 aminoacylation ribozyme variant] | 0.493 | 0.535 | 0.459 | 1.03 | 0.657 | 0.666 |
| CUACUUCAAACAAUCUAUCUG [Fam1A.1 aminoacylation ribozyme variant] | 0.485 | 0.461 | 0.474 | 0.981 | 0.579 | 0.507 |
| AUUAGCCUGGUCAUCGAGUGU [Fam2.1 aminoacylation ribozyme variant] | 4.18 | 4.71 | 5.12 | 3.87 | 3.14 | 2.76 |
| AAGUUUGCUACUAGUCGCAAC [Fam3.1 aminoacylation ribozyme variant] | 0.763 | 0.845 | 0.917 | 0.697 | 0.874 | 0.737 |
| AAUAACCUGGUCAUCGAGUGA [Fam2.1 aminoacylation ribozyme variant] | 5.79 | 5.9 | 7.36 | 9.51 | 3.55 | 3.67 |
| CUACUACAAACGAUCGGUCUG [Fam1A.1 aminoacylation ribozyme variant] | 0.656 | 0.915 | 0.607 | 0.437 | 0.797 | 0.821 |
| UUUCACCUAGGGCAUCGGGUG [Fam2.2 aminoacylation ribozyme variant] | 3.49 | 3.15 | 3.56 | 26 | 3.9 | 3.17 |
| AAGGUUGCUAAUAGUCGCAAU [Fam3.1 aminoacylation ribozyme variant] | 1.68 | 1.81 | 1.61 | 3.18 | 1.46 | 1.99 |
| AUUCAACGAGGUCAUCGGGUG [Fam2.2 aminoacylation ribozyme variant] | 9.27 | 7.46 | 6.07 | 54.8 | 5.11 | 3.97 |
| CGACACCUCAAGCAAUCGGUC [Fam1B.1 aminoacylation ribozyme variant] | 0.749 | 1.03 | 1.17 | 1.16 | 1.06 | 0.973 |
| CCACACUUCAAGCGACCGGUC [Fam1B.1 aminoacylation ribozyme variant] | 1.33 | 1.11 | 1.63 | 0.483 | 1.52 | 1.22 |
| AUUCUCCUAGGUCAUCGGGUA [Fam2.2 aminoacylation ribozyme variant] | 8.96 | 7.07 | 7.31 | 29.6 | 4.84 | 4.71 |
| GUACACUUCAAGCAAUCGGUC [Fam1B.1 aminoacylation ribozyme variant] | 1.64 | 1.29 | 18.4 | 21.1 | 1.34 | 1.55 |
